Experimental data: patent US20110207152A1

What was measured:
[1] = molecular target: native human plasma gelsolin (human) (UniProt P06396); experiment: sandwich ELISA on human plasma; detection antibody GS2C4 (HRP), capture antibody GF2D6
[2] = molecular target: native human plasma gelsolin (human) (UniProt P06396); experiment: sandwich ELISA on human plasma; detection antibody GS2C4 (HRP), capture antibody GN3E9
[3] = molecular target: native human plasma gelsolin (human) (UniProt P06396); experiment: sandwich ELISA on human plasma; detection antibody GS2C4 (HRP), capture antibody GC1C10
[4] = molecular target: F-actin prepared from rabbit muscle actin (rabbit) (UniProt P68135); experiment: cell-based or functional assay

Sequence of native human plasma gelsolin (human) (P06396 28-782 limits assumed): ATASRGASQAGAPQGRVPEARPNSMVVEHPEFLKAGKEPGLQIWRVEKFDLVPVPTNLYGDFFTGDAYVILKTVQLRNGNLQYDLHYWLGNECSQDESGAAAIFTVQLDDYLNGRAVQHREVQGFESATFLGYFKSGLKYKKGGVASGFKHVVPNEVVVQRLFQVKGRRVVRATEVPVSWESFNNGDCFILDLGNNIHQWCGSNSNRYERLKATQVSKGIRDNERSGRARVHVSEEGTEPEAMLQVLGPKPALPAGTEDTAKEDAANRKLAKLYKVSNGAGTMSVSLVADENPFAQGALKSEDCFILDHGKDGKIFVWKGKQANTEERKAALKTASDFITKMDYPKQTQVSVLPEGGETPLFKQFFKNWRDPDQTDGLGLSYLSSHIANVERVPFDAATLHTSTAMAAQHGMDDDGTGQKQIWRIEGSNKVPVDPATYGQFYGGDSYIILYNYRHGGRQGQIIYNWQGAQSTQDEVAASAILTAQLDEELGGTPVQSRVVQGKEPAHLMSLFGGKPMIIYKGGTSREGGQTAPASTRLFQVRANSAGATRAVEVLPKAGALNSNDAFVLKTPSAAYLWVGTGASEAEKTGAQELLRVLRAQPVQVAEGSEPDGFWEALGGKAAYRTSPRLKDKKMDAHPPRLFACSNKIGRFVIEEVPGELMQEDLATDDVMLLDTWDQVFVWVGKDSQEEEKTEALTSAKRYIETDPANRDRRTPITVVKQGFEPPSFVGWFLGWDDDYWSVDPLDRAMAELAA
Sequence of native human plasma gelsolin (P06396 28-782 limits assumed): as above

Row | Substance | OD (sandwich ELISA pairing) [1] [OD] | OD (sandwich ELISA pairing) [2] [OD] | OD (sandwich ELISA pairing) [3] [OD] | % of F-actin at 0.1 mg/ml gelsolin (F-actin severing assay) [4] [%] | % of F-actin at 0.5 mg/ml gelsolin (F-actin severing assay) [4] [%] | % of F-actin at 1.0 mg/ml gelsolin (F-actin severing assay) [4] [%]
1 | commercial anti-human gelsolin antibody GS2C4 (Sigma Chemical Co.) | 0.013 | 0.025 | 0.014 |  |  | 
2 | native human plasma gelsolin (from UniProt P06396 28-782) |  |  |  | 35 | 21 | 12
